Data: the supplement of paper PMC9170038

Key:
MS2 coat protein [1] = experiment: apparent KD of MS2 coat protein, switch OFF state (with FMN for OFF switches, without FMN for ON switches); designed switch direction (-1 OFF switch, 1 ON switch): -1; higher = weaker reporter binding; settings: FMN input: 0 or 200 uM; Eterna round: R93 (includes R88 designs)
Method in brief: (§1)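 Designed RNA switches, transcribed on-chip from Illumina sequencing clusters, were titrated with SNAP-549-labelled MS2 coat protein from 0.7 or 1.5 nM to 3 µM in twofold steps. The solution was 100 mM Tris-HCl pH 7.5, 80 mM KCl, 4 mM MgCl2, with constant ligand or without it. Apparent KD is the median over each design's normalised cluster binding-curve fits.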

MS2 coat protein [2] = experiment: apparent KD of MS2 coat protein, switch ON state; designed switch direction (-1 OFF switch, 1 ON switch): -1; higher = weaker reporter binding; settings: FMN input: 0 or 200 uM; Eterna round: R93 (includes R88 designs)
Method in brief: as §1

| Sequence | apparent KD of MS2 coat protein (MS2 coat protein [1]) | apparent KD of MS2 coat protein (MS2 coat protein [2]) |
| --- | --- | --- |
| AUUAUGUAAGGAUAUGAGUGAACAACAAAACAAAUAACGACUCAGAAGGUACAUGAGGAUCACCCAUGUAUAAA [May 70] | 0.021 µM | 0.0289 µM |
| CAAAGGUGAGGAUAUACAUAACUAUGACGAAAGUCAUAAACACAUGAGGAUCACCCAUGUAGAAGGCACCACAA [e2] | 0.0299 µM | 0.0326 µM |
| CAGUACUGAGGAUAUACAUGAGGAUCACCCAUGUAAAAAACCUACGAAAGUAGGAAAUGUAGAAGGCAGUACUG [Ex3: 803] | 0.0222 µM | 0.0164 µM |
| CAUAAGCAAGGAUAUACAUGAGGAUCACCCAUGUAGCUUUGCUUCGUGGGCACAACAUGUAGAAGGUGCGAAAA [Leceedon] | 0.0139 µM | 0.015 µM |
| CCACAGGUAGGAUAUGCUGGGUGGGAUAAAUAAUUCCUGUGACAUGAGGAUCACCCAUGUAGAAGGACCAAAAG [Rixela] | 0.0401 µM | 0.0229 µM |
| CCUAUGUCAGGAUAUCAGUAGUAAAAAAAAAAAAUUACUACUGAGAAGGGACAUGAGGAUCACCCAUGUCACUU [EX4 311: Super Stable 11] | 0.0188 µM | 0.0285 µM |
| CUCAAGUGAGGAUAUUCAAGAAAAGAAAAGAAAGAAAAGAAGAAGAAGGCACAUGAGGAUCACCCAUGUAAGAA [EteRNA is fun!] | 0.0575 µM | 0.0349 µM |
| CUCAAGUGAGGAUAUUUAAGAAAAGAAGAGAAAGAAAAGAAAAAGAAGGCACAUGAGGAUCACCCAUGUAAGAA [EteRNA is fun!] | 0.0328 µM | 0.0315 µM |
| CUCAUGUCAGGAUAUCAGUAGUAAAAAAAAAAAAUUACUACUGAGAAGGGACAUGAGGAUCACCCAUGUCCCUU [EX4 301: Super Stable 1] | 0.0167 µM | 0.0204 µM |
| CUCAUGUGAGGAUAUCAGUAGUAAAAAAAAAAAAUUACUACUGAGAAGGCACAUGAGGAUCACCCAUGUGCCUU [EX4 325: Super Stable 25] | 0.0155 µM | 0.0189 µM |
| CUCAUGUGAGGAUAUCAGUAGUAAAAAAAUAAAAUUACUACUGAGAAGGCACAUGAGGAUCACCCAUGUGCCAA [EX4 337: Super Stable 37] | 0.0276 µM | 0.0213 µM |
| CUCUAGUCAGGAUAUGGAAGAAAAGAAGAGAAAGAAAAGAACCAGAAGGGACAUGAGGAUCACCCAUGUAAGAA [EteRNA is fun!] | 0.0418 µM | 0.0782 µM |
| CUCUUGUAAGGAUAUAAAUGAAAAGAAGUGAAAGAAAAGAAUUAGAAGGUACAUGAGGAUCACCCAUGUUAGAA [EteRNA is fun!] | 0.0185 µM | 0.0221 µM |
| CUCUUGUGAGGAUAUGAAAGAAAAGAAGAGAAAGAAAAGAAUCAGAAGGCACAUGAGGAUCACCCAUGUAAGAA [EteRNA is fun!] | 0.106 µM | 0.0274 µM |
| CUCUUGUGAGGAUAUGUAAGAAAAGAAAAGAAAGAAAAGAAACAGAAGGCACAUGAGGAUCACCCAUGUAAGAA [EteRNA is fun!] | 0.0459 µM | 0.0317 µM |
| GAAAAGGUAGGAUAUACGAAAAAAAAGGGUAAAAUAAAUAAACAUGAGGAUCACCCAUGUAGAAGGACCAAAAG [Mat - Exclusion 2 - Tesla mod - D39] | 0.0496 µM | 0.0301 µM |
| GAAAAGUCAGGAUAUACAGAAAAAAAAACGAAAAAAAAUCUGUAGAAGGGACAUGAGGAUCACCCAUGUAAAAG [Mat - Exclusion 4 - Mayanna - D123] | 0.0387 µM | 0.0526 µM |

| Sequence | apparent KD of MS2 coat protein (MS2 coat protein [1]) | apparent KD of MS2 coat protein (MS2 coat protein [2]) |
| --- | --- | --- |
| GAAAAGUGAGGAUAUACAGAUAAAAAAACGAAAAAAAAUCUGUAGAAGGCACAUGAGGAUCACCCAUGUAAAAA [Mat - Exclusion 4 - Mayanna - D106] | 0.0298 µM | 0.0317 µM |
| GAAAAGUGAGGAUAUGCGAAGGCGUCUGAUAGACGAGGCUAGCAGAAGGCACAUGAGGAUCACCCAUGUGGGAG [Mat - Exclusion 4 - Eli mod - D92] | 0.0764 µM | 0.0619 µM |
| GACUAGUCAGGAUAUACGAACAUGUCAAAAGACGUGAAGGAACAUGAGGAUCACCCAUGUAGAAGGGACUAGCA [Diamond 19] | 0.0177 µM | 0.0252 µM |
| GAUUAGUGAGGAUAUACAUGAGGAUCACCCAUGUGUAAAAAAAAACGCAAAAAAGAAUGUAGAAGGCACUAAAG [Mat - Exclusion 3 - Mayanna mod - D103] | 0.0314 µM | 0.0216 µM |
| GGCACUGUAGGAUAUACAUGAACAAUUGGCAUCCUCAGUCCACAUGAGGAUCACCCAUGUAGAAGGAUAGAAAA [Besorees] | 0.0911 µM | 0.131 µM |
| GGCUAGUCAGGAUAUACGAACAUGUCAAAAGACGUGAAGGGACAUGAGGAUCACCCAUGUAGAAGGGACUAGCG [salish99-ex2-13] | 0.132 µM | 0.0328 µM |
| GGGCCACAUGAGGAUCACCCAUGUAAGGAUAUGCUAGGGAUGGAAAAAAUUACGCAAAGCAGAAGGUACUAAAG [Janelle Amethyst 18 Mod 9 - Jieux - Exclusion 1] | 0.0355 µM | 0.0269 µM |
| GGGUAGUCAGGAUAUACAAACAUGUCAAAAGACGUGAAAAAACAUGAGGAUCACCCAUGUAGAAGGGACUACCC [Mat - Exclusion 2 - JL mod - D20] | 0.015 µM | 0.0178 µM |
| GGUUGACGAGGAUAUACAUGAGGAUCACCCAUGUGAGAGAAAAAAGUGAGAAAGAAAAGUAGAAGGCGUUGACG [salish99-ex3-59] | 0.0918 µM | 0.0369 µM |
| GGUUGGCGAGGAUAUACAUGAGGAUCACCCAUGUGAGAGAAAAAAGUGAGGAGGAGGAGUAGAAGGCGCUGACG [salish99-ex3-18] | 0.097 µM | 0.0284 µM |
| GGUUGUGAAGGAUAUACAUGAGGAUCACCCAUGUGAGAGAAAAAAGUGAGAAAGAAAAGUAGAAGGUCAUGACG [salish99-ex3-64] | 0.0762 µM | 0.0308 µM |
| UAAAACAGAGGAUAUACAUGAGGAUCACCCAUGUAAAAAUGUAGAAGGCUGAAAUAAAUAAGAAGGAAAUAAAA [Meechl Ex3 R2 m1] | 0.0256 µM | 0.0248 µM |
| UAAAGACAUGAGGAUCACCCAUGUGAGGAUAUAGGUGUAUGCAAAAAAAAGCAAAAAACUAGAAGGCACAGAAA [JR_Exc001_Sub304] | 0.0689 µM | 0.0596 µM |
| UAUGAGCGAGGAUAUGCUUGGGACGUCGUUCUUGCGGCGAGACAUGAGGAUCACCCAUGUAGAAGGCGCGAGCG [Harteesian Twist] | 0.0167 µM | 0.0174 µM |
| UCAGGUGGAGGAUAUACAGCUCGAUCCUGGAAUAAAACGGCACAUGAGGAUCACCCAUGUAGAAGGCCACAAAA [Texeussoat] | 0.0551 µM | 0.0189 µM |
| UCCAGACAUGAGGAUCACCCAUGUCAGGAUAUCUACAGAACCUCAUGUAAAAAACUGUAGAGAAGGGAUAUGAA [Design 97: Pseudoknot G] | 0.016 µM | 0.0167 µM |
| UCCUCACAUGAGGAUCACCCAUGUGAGGAUAUGUACAUCAGGAAAAAAAAACUGAUGUACAGAAGGCACAUGAA [Design 10: Super Stable G-C 3] | 0.0165 µM | 0.0133 µM |
